Experimental findings from US20160251438A1 (LUDWIG INSTITUTE FOR CANCER RESEARCH, published 2016) are described below.

In assay [1] the target is T1, recombinant soluble human GARP-TGFβ1 complex (human, UniProt Q14392 20-628; P01137 30-390).
T1 construct: co-expressed in HEK293E, purified by the Strep-Tag; TGFβ consists of LAP and mature TGFβ; also called shGARP-TGFβ; rhGARP-TGFβ
The assay is described as follows: SPR (Biacore), hGARP-TGFβ1 immobilised. Background: Surface plasmon resonance follows binding to a sensor surface in real time, without labels.

Assay [2] concerns the target T2, human TGF-β1 (latent) (human, UniProt P01137 30-390).
T2 construct: from transfected hTGFB1; also called hTGF-β1; hTGFB1
The assay is described as follows: FACS, 293T + hTGFB1 only [cont.) B]. The text has this: No latent TGF-β is detected on their surface with an anti-LAP antibody. Transfection of GARP or TGFB1 alone induces no or low surface LAP, respectively, whereas co-transfection of GARP and TGFB1 induces high surface LAP as a result of latent TGF-β1 binding and presentation by GARP (FIG. 14, part B, left histograms).
(In general: Flow cytometry measures light scatter and fluorescence of single cells or particles in a stream.)

T1 sequence (Q14392 other isoform, or with tags, fused parts or gaps limits assumed, chain 1 of 2): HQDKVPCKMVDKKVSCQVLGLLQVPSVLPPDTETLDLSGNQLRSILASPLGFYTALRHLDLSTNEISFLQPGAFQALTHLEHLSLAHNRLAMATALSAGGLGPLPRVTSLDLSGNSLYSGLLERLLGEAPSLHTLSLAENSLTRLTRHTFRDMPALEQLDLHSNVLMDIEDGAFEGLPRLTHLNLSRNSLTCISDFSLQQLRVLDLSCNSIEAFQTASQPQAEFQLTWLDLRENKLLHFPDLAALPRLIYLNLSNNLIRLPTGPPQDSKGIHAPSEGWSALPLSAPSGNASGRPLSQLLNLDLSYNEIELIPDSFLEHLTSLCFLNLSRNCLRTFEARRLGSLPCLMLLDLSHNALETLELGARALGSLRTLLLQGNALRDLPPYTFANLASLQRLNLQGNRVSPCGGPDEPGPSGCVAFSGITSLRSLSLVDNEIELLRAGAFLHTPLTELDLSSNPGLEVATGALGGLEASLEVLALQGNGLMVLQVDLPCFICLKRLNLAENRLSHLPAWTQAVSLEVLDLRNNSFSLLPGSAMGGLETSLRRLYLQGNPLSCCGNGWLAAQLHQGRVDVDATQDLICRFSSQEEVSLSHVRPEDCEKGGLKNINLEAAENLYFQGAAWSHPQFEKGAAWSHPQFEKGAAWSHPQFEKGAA
T1 sequence (P01137 30-390 limits assumed, chain 2 of 2): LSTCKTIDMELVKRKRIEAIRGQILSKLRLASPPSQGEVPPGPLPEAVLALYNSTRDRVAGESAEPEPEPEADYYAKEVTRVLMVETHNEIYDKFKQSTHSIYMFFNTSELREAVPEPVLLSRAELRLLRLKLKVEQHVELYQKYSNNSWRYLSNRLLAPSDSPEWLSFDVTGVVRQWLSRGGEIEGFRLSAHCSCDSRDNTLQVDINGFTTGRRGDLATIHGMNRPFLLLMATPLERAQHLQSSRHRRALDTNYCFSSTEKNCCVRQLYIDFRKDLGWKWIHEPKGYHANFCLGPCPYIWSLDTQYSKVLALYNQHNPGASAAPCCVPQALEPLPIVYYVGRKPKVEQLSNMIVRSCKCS
T2 sequence (P01137 30-390 limits assumed): as the sequence (P01137 30-390 limits assumed, chain 2 of 2) above

B1: LHG-10.4-D (antibody, human IgG1, V domains shown)
VH: EVQLVQPGAELRNSGASVKVSCKASGYRFTSYYIDWVRQAPGQGLEWMGRIDPEDGGTKYAQKFQGRVTFTADTSTSTAYVELSSLRSEDTAVYYCARNEWETVVVGDLMYEYEYWGQGTQVTVSS
VL: DIQMTQSPSSLSASLGDRVTITCQASQSISSYLAWYQQKPGQAPKLLIYGTSRLKTGVPSRFSGSGSGTSFTLTISGLEAEDAGTYYCQQYYSAPVTFGQGTKVELK
Regarding B1, in assay [1], the equilibrium dissociation constant (Kd) is 0.0327 nM, the “fold improvement of KD (reference LHG-10-D)” value is 5.7 fold, the “fold improvement of ka (reference LHG-10-D)” value was 0.4 fold and the “fold improvement of kd (reference LHG-10-D)” value is 2.2 fold. In addition, in assay [1], the koff came out at 1.21e-05 s⁻¹ and the kon was 371000 M⁻¹ s⁻¹.

B2: LHG-10.5 (antibody, human IgG1, V domains shown)
VH: EVQLVQPGAELRNSGASVKVSCKASGYRFTSYYIDWVRQAPGQGLEWMGRIDPEDGGTKYAQKFQGRVTFTADTSTSTAYVELSSLRSEDTAVYYCARNEWETVVVGDLMYEYEYWGQGTQVTVSS
VL: DIQMTQSPSSLSPSLGDRVTITCQASQTISSFLAWYHQKPGQPPKLLIYRASIPQTGVPSRFSGSGSGTSFTLTIGGLEAEDAGTYYCQQYVSAPPTFGQGTKVELK
notes: VK-shuffled variant of LHG-10, human IgG1
Consider B2, for which, in assay [1], the Kd is 0.0331 nM, the “fold improvement of KD (reference LHG-10)” value was determined as 4 fold, the “fold improvement of ka (reference LHG-10)” value amounted to 0.6 fold and the “fold improvement of kd (reference LHG-10)” value came to 2.3 fold. In addition, in assay [1], the koff was 1.37e-05 s⁻¹ and the kon was determined as 415000 M⁻¹ s⁻¹.

B3: LHG-10.4 (antibody, human IgG1, V domains shown)
VH: EVQLVQPGAELRNSGASVKVSCKASGYRFTSYYIDWVRQAPGQGLEWMGRIDPEDGGTKYAQKFQGRVTFTADTSTSTAYVELSSLRSEDTAVYYCARNEWETVVVGDLMYEYEYWGQGTQVTVSS
VL: DIQMTQSPSSLSASLGDRVTITCQASQSISSYLAWYQQKPGQAPKLLIYGTSRLKTGVPSRFSGSGSGTSFTLTISGLEAEDAGTYYCQQYYSAPVTFGQGTKVELK
notes: as for B2
Turning to B3, in assay [1], the Kd was 0.0291 nM, the “fold improvement of KD (reference LHG-10)” value was found to be 4.5 fold, the “fold improvement of ka (reference LHG-10)” value came to 0.5 fold and the “fold improvement of kd (reference LHG-10)” value was determined as 2.4 fold. For the same molecule, in assay [1], the koff came to 1.3e-05 s⁻¹ and the kon was determined as 448000 M⁻¹ s⁻¹.

B4: LHG-10.5-D (antibody, human IgG1, V domains shown)
VH: EVQLVQPGAELRNSGASVKVSCKASGYRFTSYYIDWVRQAPGQGLEWMGRIDPEDGGTKYAQKFQGRVTFTADTSTSTAYVELSSLRSEDTAVYYCARNEWETVVVGDLMYEYEYWGQGTQVTVSS
VL: DIQMTQSPSSLSPSLGDRVTITCQASQTISSFLAWYHQKPGQPPKLLIYRASIPQTGVPSRFSGSGSGTSFTLTIGGLEAEDAGTYYCQQYVSAPPTFGQGTKVELK
For B4, in assay [1], the Kd is 0.028 nM, the “fold improvement of KD (reference LHG-10-D)” value amounted to 6.6 fold, the “fold improvement of ka (reference LHG-10-D)” value worked out at 0.4 fold and the “fold improvement of kd (reference LHG-10-D)” value amounted to 2.4 fold. In addition, in assay [1], the koff is 1.07e-05 s⁻¹ and the kon is 383000 M⁻¹ s⁻¹.

B5: LHG-10.6 (antibody, human IgG1, V domains shown)
VH: EVQLVQPGAELRNSGASVKVSCKASGYRFTSYYIDWVRQAPGQGLEWMGRIDPEDGGTKYAQKFQGRVTFTADTSTSTAYVELSSLRSEDTAVYYCARNEWETVVVGDLMYEYEYWGQGTQVTVSS
VL: DIQMTQSPSSLSASLGDRVTITCQASQSISSYLAWYQQKPGQAPNILIYGASRLKTGVPSRFSGSGSGTSFTLTISGLEAEDAGTYYCQQYASVPVTFGQGTKVELK
notes: as for B2
On to B5, for which, in assay [1], the Kd turned out to be 0.0159 nM, the “fold improvement of KD (reference LHG-10)” value came to 8.2 fold, the “fold improvement of ka (reference LHG-10)” value was 0.9 fold and the “fold improvement of kd (reference LHG-10)” value stood at 7.1 fold. Moreover, in assay [1], the koff was 4.4e-06 s⁻¹ and the kon worked out at 276000 M⁻¹ s⁻¹.

B6: LHG-10.3-D (antibody, human IgG1, V domains shown)
VH: EVQLVQPGAELRNSGASVKVSCKASGYRFTSYYIDWVRQAPGQGLEWMGRIDPEDGGTKYAQKFQGRVTFTADTSTSTAYVELSSLRSEDTAVYYCARNEWETVVVGDLMYEYEYWGQGTQVTVSS
VL: DIQMTQSPSSLSASLGDRVTITCQASQSIVSYLAWYQQKPGQAPKLLIYGASRLQTGVPSRFSGSGSGTSFTLTISGLEAEDAGTYYCQQYASAPVTFGQGTGVELK
In the case of B6, in assay [1], the Kd came to 0.0224 nM, the “fold improvement of KD (reference LHG-10-D)” value was 8.3 fold, the “fold improvement of ka (reference LHG-10-D)” value is 0.6 fold and the “fold improvement of kd (reference LHG-10-D)” value came out at 5.1 fold. Moreover, in assay [1], the koff was 5.18e-06 s⁻¹ and the kon was 231000 M⁻¹ s⁻¹.

B7: LHG-10-D (antibody, human IgG1, V domains shown)
VH: EVQLVQPGAELRNSGASVKVSCKASGYRFTSYYIDWVRQAPGQGLEWMGRIDPEDGGTKYAQKFQGRVTFTADTSTSTAYVELSSLRSEDTAVYYCARNEWETVVVGDLMYEYEYWGQGTQVTVSS
VL: DIQMTQSPTSLSASLGDRVTITCQASQSISSYLAWYQQKPGQAPKLLIYGASRLQTGVPSRFSGSGSGTSFTLTISGLEAEDAGTYYCQQYDSLPVTFGQGTKVELK
As for B7, in assay [1], the Kd stood at 0.185 nM, the “fold improvement of KD (reference LHG-10-D)” value was 1 fold, the “fold improvement of ka (reference LHG-10-D)” value is 1 fold and the “fold improvement of kd (reference LHG-10-D)” value came to 1 fold. Moreover, in assay [1], the koff was found to be 2.62e-05 s⁻¹ and the kon amounted to 142000 M⁻¹ s⁻¹.

B8: LHG-10.3 (antibody, human IgG1, V domains shown)
VH: EVQLVQPGAELRNSGASVKVSCKASGYRFTSYYIDWVRQAPGQGLEWMGRIDPEDGGTKYAQKFQGRVTFTADTSTSTAYVELSSLRSEDTAVYYCARNEWETVVVGDLMYEYEYWGQGTQVTVSS
VL: DIQMTQSPSSLSASLGDRVTITCQASQSIVSYLAWYQQKPGQAPKLLIYGASRLQTGVPSRFSGSGSGTSFTLTISGLEAEDAGTYYCQQYASAPVTFGQGTGVELK
notes: as for B2
For B8, in assay [1], the Kd came to 0.0222 nM, the “fold improvement of KD (reference LHG-10)” value was 5.9 fold, the “fold improvement of ka (reference LHG-10)” value turned out to be 0.8 fold and the “fold improvement of kd (reference LHG-10)” value came out at 4.9 fold. Further, in assay [1], the koff is 6.38e-06 s⁻¹ and the kon was 287000 M⁻¹ s⁻¹.

B9: LHG-10.6-D (antibody, human IgG1, V domains shown)
VH: EVQLVQPGAELRNSGASVKVSCKASGYRFTSYYIDWVRQAPGQGLEWMGRIDPEDGGTKYAQKFQGRVTFTADTSTSTAYVELSSLRSEDTAVYYCARNEWETVVVGDLMYEYEYWGQGTQVTVSS
VL: DIQMTQSPSSLSASLGDRVTITCQASQSISSYLAWYQQKPGQAPNILIYGASRLKTGVPSRFSGSGSGTSFTLTISGLEAEDAGTYYCQQYASVPVTFGQGTKVELK
notes: also called LHG-10.6N297Q
Consider B9, for which, in assay [1], the dissociation constant Kd came out at 0.0216 nM, the “fold improvement of KD (reference LHG-10-D)” value was 8.6 fold, the “fold improvement of ka (reference LHG-10-D)” value came out at 0.5 fold and the “fold improvement of kd (reference LHG-10-D)” value worked out at 4.3 fold. In assay [1], the koff was determined as 6.15e-06 s⁻¹ and the kon turned out to be 284000 M⁻¹ s⁻¹.

B10: MHGARP8 (antibody, V domains shown)
VH: QVQLKESGPGLVAPSQSLSITCTVSGFSLTGYGINWVRQPPGKGLEWLGMIWSDGSTDYNSVLTSRLRISKDNSNSQVFLKMNSLQVDDTARYYCARDRNYYDYDGAMDYWGQGTSVTVSS
VL: DIQVTQSSSYLSVSLGDRVTITCKASDHIKNWLAWYQQKPGIAPRLLVSGATSLEAGVPSRFSGSGSGKNFTLSITSLQTEDVATYYCQQYWSTPWTFGGGTTLEIR
notes: biotinylated for FACS; also called MHG-8
In the case of B10, the binding result in assay [2] is listed as “no binding”.

What is called Kd is a measure of binding affinity in units of concentration. The term koff denotes the first-order rate constant of dissociation. By kon is commonly meant a measure of how fast the partners come together.
